Patent US20170267762A1 (APOLLOMICS, published 2017)
Blank lines part the entries; values can stand above or below the binder they belong to.

What was measured:
[1] = target: T1, human PD-1 on cells (293T cells transfected with human PD-1) (human, UniProt Q15116 25-288); assay: FACS on hPD-1-293T cells
T1 construct: whole, on cells; Also used as the target for the functional rows, where PD-1 stands on human T cells
Description: The cells were incubated with the indicated antibody (20 ug/ml with the dilution of ⅕) at 4° C. for 1 h. Cells were washed three times with FACS buffer. A secondary antibody (PE Goat anti-mouse: 1:200; PE mouse anti-human: 1:10) was added to the cells at 100 ul/well, and incubated at 4° C. for 40min. Cells were washed three times with FACS buffer and analyzed by FACS Array.
(§1) The purified hybridoma antibodies were characterized further based on ELISA and FACS analyses.

[2] = target: T2, human PD-1 (construct not stated) (human, UniProt Q15116 25-167, limits assumed); assay: Biacore (summary table; unit from Table 7)
T2 construct: also called PD-1 analyte
Description: (§2) To further characterize the binding characteristics of the antibodies, 10 hybridoma antibodies were profiled using Biacore (Biacore 3000, GE) to elucidate binding kinetics and calculate equilibrium binding constants. This assay was performed by capture method, using the mouse antibody capture kit (BR-1008-38, GE). After diluting anti-mouse Fc mab to 25 μg/ml in pH 5.0 immobilization buffer, immobilization was conducted with the parameters shown in Table 6 at a flow rate of 5 μl/min. The kinetic runs were done by 1) injecting ligand for typical 0.5-1 min at flow rate of 10 μl/min.; 2) injecting analytes of choice for typical 3 min followed by dissociation in running buffer (1× PBS-P20) for typical 5-10 min at flow rate of 30 μl/min.; and 3) injecting regeneration solution 10 mM Glycine pH1.7 for typical 1-2 min at flow rate of 10 μl/min.

[3] = target: T3, human CTLA4 (human, UniProt P16410 36-161, limits assumed); assay: Interaction with CTLA4, ICOS CD28; assay not detailed
T3 sequence (looked up): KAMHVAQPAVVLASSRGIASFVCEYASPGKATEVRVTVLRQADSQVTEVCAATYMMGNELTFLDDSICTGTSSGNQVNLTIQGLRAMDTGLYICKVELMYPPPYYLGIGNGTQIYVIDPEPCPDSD

[4] = target: T4, human ICOS (human, UniProt Q9Y6W8 21-140, limits assumed); assay: as above
T4 sequence (looked up): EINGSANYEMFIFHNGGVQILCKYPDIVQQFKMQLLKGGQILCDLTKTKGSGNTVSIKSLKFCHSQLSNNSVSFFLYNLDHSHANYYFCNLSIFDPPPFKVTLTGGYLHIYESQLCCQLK

[5] = target: human CD28 (human, UniProt P10747 19-152, limits assumed); assay: as above
[6] = target: T5, human PD-1 extracellular domain fused with mouse Fc (PD-1-mFc) (human, UniProt Q15116 25-170); assay: blockage ELISA, competitor PDL-1-mFc-biotin (summary table; IC50 in ng/ml in Table 2)
T5 construct: extracellular domain; not used because of the label; also called hPD-1-mFc; human PD-1-mouse Fc fusion protein
Description: (§3) PD-1-mFc antigen (CrownBio) was suspended in PBS (Hyclone,Cat No:SH30256.01B) buffer (2 ug/ml, 100 ul/ well) and coated on the 96 well plate (costar, Cat No.:9018) 4° C. overnight. Plates were washed 3 times using washing buffer: PBS+0.05% Tween 20(Sigma, Cat No.:P1379). 200 ul of blocking buffer (PBS+1%BSA(Roche, Cat No.:738328)), was added to each well, incubated at 37° C. for 1 hour, and washed 3 times. Various concentrations (suitable dilutions of hybridoma supernatant in PBS) of the anti-PD-1 Abs were added to the wells (100 μl/well) and incubated at 37° C. for 1 hour. […] Secondary antibody (Avidin HRP eBioscience cat No.:E07418-1632, 1:500, 100 ul/well) was added, incubated at 37 ° C. for 0.5 hour, and washed 3 times. TMB (Sigma, Cat No.: T0440, 100 ul/well) was added, and incubated for 3 min at RT. To stop the reaction, 2N H2SO4 (100 ul/well), was added. The colorimetric signals were developed and read at 450 nm using a Auto Plate SpectraMax Plus (Supplier: Molecular Devices; Model: MNR0643; Software: SoftMax Pro v5.4).

[7] = target: T6, mouse PD-1 (mouse, UniProt Q02242 25-169, limits assumed); assay: assays not detailed
T6 sequence (looked up): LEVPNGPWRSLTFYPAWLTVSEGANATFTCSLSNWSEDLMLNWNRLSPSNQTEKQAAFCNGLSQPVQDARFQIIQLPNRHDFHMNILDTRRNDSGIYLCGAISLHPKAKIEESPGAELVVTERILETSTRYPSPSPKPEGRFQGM

[8] = target: T1, human PD-1 on cells (293T cells …); assay: FACS blockage on hPD-1-293T cells, competitor biotin PD-L2
Description: (§4) Various concentrations of the testing hybridoma antibodies were added to the cell suspension and incubated at 4° C. for 60 minutes in 96 well plates. […] Plates were washed 3 times, and mouse anti-biotin PE antibody (Biolgend, cat# 409004) was added. Flow cytometric analyses were performed using a FACS Array.
as §1

[9] = target: T7, human PD-1 extracellular domain fused with human Fc tag (hPD-1-hFc) (human); assay: ELISA binding (summary table)
T7 construct: also called human PD-1-hFc
Description: (§5) ELISA binding analysis was conducted based on human PD-1-hFc Protein. 96-well plates (Costar, Cat No:9018) were coated with 100 μL of 2 μg/ml PD1-hFc (CrownBio) in coating buffer (PBS, Hyclone, Cat No:SH30256.01B) overnight at 4° C. The wells were aspirated and non-specific binding sites were blocked by adding 200 μL of blocking buffer with 1% (w/v) of bovine serum albumin (BSA, Roche, Cat No: 738328) and incubating for 1 hour at 37° C. After the plates are washed three times with wash buffer (PBS with 0.05%(v/v) Tween20 (Sigma, Cat No:P1379), 100 μL/well of a suitable dilutions of hybridoma supernatant in blocking buffer were added and incubated at room temperature for 1 hour. The plates were washed and incubated with 100 μL/well of Goat anti-Mouse IgG (H+L) (Thermo, Cat No: 31432) in blocking buffer for 60 min. After the plates were washed, 100 μL/well of substrate solution (TMB(eBioscience, Cat No:00-4201-56) was added and the plates were incubated for 2min at room temperature. 100 μL/well of stop solution (2N H2SO4) was added to stop the reaction. The colorimetric signals were developed and read at 450 nm using a Auto Plate SpectraMax Plus (Supplier: Molecular Devices; Model: MNR0643; Software: SoftMax Pro v5.4).
as §1

[10] = target: T7, human PD-1 extracellular domain fused …; assay: ELISA on coated PD1-hFc
Description: as §5, §1

[11] = target: T2, human PD-1 (construct not stated); assay: Biacore, antibody captured, PD-1 analyte
Description: as §2

[12] = target: T5, human PD-1 extracellular domain fused …; assay: blockage ELISA, coated PD-1-mFc, competitor PDL-1-mFc-biotin
Description: as §3, §1

[13] = target: T1, human PD-1 on cells (293T cells …); assay: FACS blockage on hPD-1-293T cells, competitor biotin PD-L1
Description: as §4, §1

T1 sequence (Q15116 25-288): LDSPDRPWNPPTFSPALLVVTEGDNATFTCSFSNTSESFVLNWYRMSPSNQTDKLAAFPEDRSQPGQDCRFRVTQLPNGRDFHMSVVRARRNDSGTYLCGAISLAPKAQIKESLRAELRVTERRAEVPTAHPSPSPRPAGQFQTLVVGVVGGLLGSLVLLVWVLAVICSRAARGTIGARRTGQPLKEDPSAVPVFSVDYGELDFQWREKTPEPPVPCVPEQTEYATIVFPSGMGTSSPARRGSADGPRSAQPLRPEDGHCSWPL
human CD28, sequence (P10747 19-152 limits assumed): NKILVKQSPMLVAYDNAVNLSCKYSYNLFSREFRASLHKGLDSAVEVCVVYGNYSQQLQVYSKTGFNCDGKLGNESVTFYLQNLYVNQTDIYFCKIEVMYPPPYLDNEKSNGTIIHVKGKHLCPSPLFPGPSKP
T2 sequence (Q15116 25-167 limits assumed): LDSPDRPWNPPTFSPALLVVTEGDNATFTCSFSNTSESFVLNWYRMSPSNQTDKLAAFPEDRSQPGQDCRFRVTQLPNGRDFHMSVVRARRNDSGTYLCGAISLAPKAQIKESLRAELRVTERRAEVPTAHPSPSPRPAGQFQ
T5 sequence (Q15116 25-170): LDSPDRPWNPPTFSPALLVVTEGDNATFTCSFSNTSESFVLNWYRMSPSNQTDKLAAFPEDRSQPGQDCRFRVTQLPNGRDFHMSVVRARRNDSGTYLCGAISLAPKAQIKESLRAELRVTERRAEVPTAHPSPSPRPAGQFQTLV
T7 sequence (chain, as listed by the source limits assumed): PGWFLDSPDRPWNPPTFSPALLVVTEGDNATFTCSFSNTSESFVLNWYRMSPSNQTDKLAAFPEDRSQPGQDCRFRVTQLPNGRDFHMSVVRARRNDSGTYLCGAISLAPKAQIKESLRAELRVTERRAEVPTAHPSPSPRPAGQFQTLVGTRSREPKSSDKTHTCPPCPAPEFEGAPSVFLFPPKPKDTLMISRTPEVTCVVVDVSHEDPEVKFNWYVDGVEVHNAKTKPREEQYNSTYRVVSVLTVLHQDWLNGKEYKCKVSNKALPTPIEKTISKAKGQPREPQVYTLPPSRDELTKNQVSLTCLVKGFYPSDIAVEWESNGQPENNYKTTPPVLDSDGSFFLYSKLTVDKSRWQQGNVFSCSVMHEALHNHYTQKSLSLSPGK

EC50 [1]: 0.0454 µg/mL
Kd [2]: 0.0184 nM
binding result [3]: no binding
binding result [4]: no binding
binding result [5]: no binding
IC50 [6]: 0.873 µg/mL
binding result [7]: no binding
IC50 [8]: 0.063 µg/mL
EC50 [9]: 0.0134 µg/mL
EC50 [10]: 0.0134 µg/mL
Ka [11]: 5.44e+10 M⁻¹
Kd [11]: 0.0184 nM
koff [11]: 3.67e-05 s⁻¹
kon [11]: 2e+06 M⁻¹ s⁻¹
IC50 [12]: 0.873 µg/mL
IC50 [13]: 0.0356 µg/mL
B1: 15H5 murine anti-PD-1 antibody (antibody, V domains shown)
VH: EVKLVESGGGLVKPGGSLKLSCAASGFAFRSYDMSWVRQTPEKILEWVATISGGGSYTYYQDSVKGRFTISRDNARNTLYLQMSSLRSEDTALYYCASPYGPYFDYWGQGTTLTVSS
VL: DIQMNQSPSSLSASLGDTITITCHASQSINVWLSWYQQKPGNIPKLLIYRASNLHTGVPSRFSGSGSGTGFTLTISSLQPDDIATYYCQQGQSYPWTFGGGTKLEIKR
notes: Purified hybridoma antibody; also called 15H5-mIgG1

EC50 [1]: 0.0308 µg/mL
Kd [2]: 0.0278 nM
binding result [3]: no binding
binding result [4]: no binding
binding result [5]: no binding
IC50 [6]: 0.701 µg/mL
binding result [7]: no binding
IC50 [8]: 0.0529 µg/mL
EC50 [9]: 0.0173 µg/mL
EC50 [10]: 0.0173 µg/mL
Ka [11]: 3.6e+10 M⁻¹
Kd [11]: 0.0278 nM
koff [11]: 3.92e-05 s⁻¹
kon [11]: 1.41e+06 M⁻¹ s⁻¹
IC50 [12]: 0.701 µg/mL
IC50 [13]: 0.0199 µg/mL
B2: 13F1 murine anti-PD-1 antibody (antibody, V domains shown)
VH: DVQLQESGPGLVKPSQSLSLTCTVTGYSITSDYAWNWIRQFPGNQLEWMAYISYSGYTSYNPSLKSRISITRDTSKNQFFLQLNSVTTEDTATYYCARSLDYDYGTMDYWGQGTSVTVSS
VL: QIVLSQSPAILSASPGEKVTMTCRANSSVSSMHWYQQKPGSSPEPWIYAISNLAFGVPTRFSGSGSGTSYSLTISRVEAEDAATYFCQQWSSRPPTFGGGTKLEIKR
notes: Purified hybridoma antibody; also called 13F1-mIgG1

EC50 [1]: 0.0389 µg/mL
binding result [3]: no binding
binding result [4]: no binding
binding result [5]: no binding
IC50 [6]: 0.699 µg/mL
binding result [7]: no binding
IC50 [8]: 0.00445 µg/mL
EC50 [9]: 0.00932 µg/mL
EC50 [10]: 0.00932 µg/mL
Ka [11]: 4.06e+10 M⁻¹
Kd [11]: 0.0246 nM
koff [11]: 4.82e-05 s⁻¹
kon [11]: 1.96e+06 M⁻¹ s⁻¹
IC50 [12]: 0.699 µg/mL
IC50 [13]: 0.0289 µg/mL
B3: 7A4 murine anti-PD-1 antibody (antibody, V domains shown)
VH: QIHLVQSGPELKKPGETVKISCKASGYTFTNFGMNWVKQAPGKGLKWMGWISGYTREPTYAADFKGRFAISLETSASTAYLQINDLKNEDMATYFCARDVFDYWGQGTTLTVSS
VL: DIVLTQSPASLAVSLGQRATISCRASESVDNYGYSFMNWFQQKPGQPPKLLIYRASNLESGIPARFSGSGSRTNFTLTINPVEADDVATYFCQQSNADPTFGGGTNLEIKR
notes: Purified hybridoma antibody; also called 7A4-mIgG1
